Source: patent WO2008021263A2

Tests used:
[1] = molecular target: SDF-1α (stromal cell-derived factor-1 alpha) (Felis catus (Cat) (Felis silvestris catus)) (UniProt O62657); assay: SPR, Fab (about 1250 RU) on anti-CH1 chip, saturating SDF-1α (Figure 5: 1D3)
[2] = molecular target: SDF-1α (stromal cell-derived factor-1 alpha) (Felis catus (Cat) (Felis silvestris catus)) (UniProt O62657); assay: SPR, calculated as (RU SDF-1α/RU Fab)*(M.Wt Fab/M.Wt SDF-1α), Fab on anti-CH1 chip (Figure 5: 1D3)

SDF-1α (stromal cell-derived factor-1 alpha) (Felis catus (Cat) (Felis silvestris catus)), sequence (O62657 22-89 limits assumed): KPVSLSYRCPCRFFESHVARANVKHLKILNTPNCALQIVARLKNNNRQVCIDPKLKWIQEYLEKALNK

B1: 1D3 Fab (Fab, V domains shown)
VH: EVQLVQSGAEVKKPGASVKVSCKVSGYTLTKLSVHWVRQAPGKGLEWMGSFDPEDGETIYSQRFQGRVTMTEDTSTDTAYMELTSLRSEDTAVYYCATEGQWLVAYYGMDVWGQGTTVTVSS
VL: EIVLTQSPSSLSASVGDRVTITCRASQGISSALAWYQQKPGKAPKLLIYDASSLESGVPSRFSGSGSGTDFTLTISSLQPEDFATYYCQQFNSYPLTFGGGTKVEIK
[1]
  RUSDF-1α (response units of SDF-1α bound): 350 RU
[2]
  stoichiometry (molecules of SDF-1α bound per Fab molecule) (molecules of SDF-1α per Fab molecule): 1.75
